Laboratory results reported in the supplement of paper PMC9170038.

Tested on: MS2 coat protein
Test: apparent KD of MS2 coat protein; designed switch direction (-1 OFF switch, 1 ON switch): 1; higher = weaker reporter binding
How it was run: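 Designed RNA switches were transcribed on Illumina chips by stalled E. coli RNA polymerase and titrated with SNAP-549-labelled MS2 coat protein from 0.7 or 1.5 nM, doubling to 3 µM. Step length ran from 0.8–1.5 h at the lowest concentration to 10–20 min at the highest. The apparent KD is the median over clusters for each design, from curve-fitted normalised cluster fluorescence.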

[1] = input ligand: microRNA oligo, concentration not stated
[2] = Eterna round: R95, input ligand: FMN 200 uM
[3] = Eterna round: R95, input ligand: microRNA oligo, concentration not stated
[4] = Eterna round: R95, input ligand: none

| Sequence | apparent KD of MS2 coat protein (input ligand: FMN 200 uM) [nM] | apparent KD of MS2 coat protein [1] [nM] | apparent KD of MS2 coat protein (input ligand: none) [nM] | apparent KD of MS2 coat protein [2] [nM] | apparent KD of MS2 coat protein [3] [nM] | apparent KD of MS2 coat protein [4] [nM] |
| --- | --- | --- | --- | --- | --- | --- |
| GUUAGGAAUCUAGCAAACAUGAGGAUCACCCAUGUUAGUGGGAAGGAUAUGGUACAGAAACUGUACCAGAAGGUCUUAUUAAUU [Omei SS(NG) 3 AV2] (Eterna round: R96, puzzle: Same State NG 3) | 58.3 | 39.1 | 55.7 | – | – | – |
| CUGAGAUGUCAAGGAUAUCACGUCGAUUAGACGUGAGAAGGUGAUCUGCACAUGAGGAUCACCCAUGUGUUACAUGGAACUCAG [Brourd's SSNG1/1-A2 mod 11] (Eterna round: R96, puzzle: Same State NG 1) | 197 | 386 | 431 | – | – | – |
| GUGGUCAGACAUGAGGAUCACCCAUGUGGAAUAAAUAACAACUAGGAUAUGUAAUAUAGGAUAUAACAGAAGGAGUGAUUGGUG (Eterna round: R96, puzzle: Same State NG 3) | – | 111 | – | – | – | – |
| AGAGUGUAUCCACAGGAUAUGCGAGCUGACACAUGAGGAUCACCCAUGUAGUCCUAAAGGGCUGAGCAGAAGGGUGGUAAAGCUC [Raesvelave] (puzzle: Same State 2) | – | – | – | 12.9 | 44.2 | 53.6 |
| GCUCGACUGAUGGCCUACAUGAGGAUCACCCAUGUGAUUGGGCAGGAUAUCUAGAUGCAGGAUGUAGAGAAGGGCCGGUCGAGC [SameState NG3 #46] (Eterna round: R96, puzzle: Same State NG 3) | 472 | 501 | 475 | – | – | – |
| CAGCACUAUCGAGAGGAUAUGCGGUGAUGGACAUGAGGAUCACCCAUGUUAGCGGUAGCAUCACGGCAGAAGGCUCUGCUGCUGC [Soteed Omei mod 39] (Eterna round: R96, puzzle: Same State 2) | 19 | 21.5 | 28.5 | – | – | – |
| UAUCCAUAGAUAGGAUAUCAGUAUACAUGAGGAUCACCCAUGUUAUAUUUGGUUUUAAGUUAGUCUGAGAAGGAUCUUGAUGAA [SameState NG2 #3] (Eterna round: R96, puzzle: Same State NG 2) | 12.4 | 11.1 | 15.6 | – | – | – |
| GUGCUCGUGUAAGGAUAUGCUUCCGUUUCGGCUGCAGAAGGUACUAUAAUACAUGAGGAUCACCCAUGUCUCUUUUGUUUGGUG [salish99_SSNG1_r04_908] (Eterna round: R96, puzzle: Same State NG 1) | 86.1 | 58.6 | 76.5 | – | – | – |
| GCUACAUGAGGAUCACCCAUGUGUGCGUGGGAGUGAGUGGCUUAGGAUAUCUAUGACUUUAGUUGAGAGAAGGAGGAUUGCUGU [SS-NG3-LRO11] (Eterna round: R96, puzzle: Same State NG 3) | 190 | 105 | 173 | – | – | – |
| AGCCUGAGUCGAGGAUAUUAUGGAUCAAUUAAUACAUGAGGAUCACCCAUGUAAUUAAUUUAACAUGAGAAGGUGACUCAGGCA [SSNG2/10-B1] (Eterna round: R96, puzzle: Same State NG 2) | – | 8.66 | – | – | – | – |
| UACAAUCUAUCUGAGGAUAUCAUGAAAUAAACAUGAGGAUCACCCAUGUGCAGGAAAACUGCAUAUGAGAAGGCAGAUAGAUUGU [salish99_ss2_r3_059] (puzzle: Same State 2) | – | – | – | 41.1 | 662 | 1640 |
| AUAAGUUCGAUGCUCGUCUCUCCGUACAAACAUGAGGAUCACCCAUGUGAUUGGGCAAUAGCCCAAUCAGUAUGACC [Gemaa] (puzzle: Sensor for hsa-mir-208a) | – | – | – | 38.1 | 26 | 41.5 |
| GCCGCAAGGGCAGGAUAUGGGUCCAGAGUGCAAAUGCACUCCGGUACAUGAGGAUCACCCAUGUCCCAGAAGGGCCCAAGCGGC [Bilaatdi] (Eterna round: R96, puzzle: Same State NG 2) | 12.8 | 144 | 163 | – | – | – |
| UUGGUGUAGAUACAGGAUAUGUUGCUCGUAACAUGAGGAUCACCCAUGUAUCUAUGAGAUUAAAUGCAGAAGGGUGCACAUCACU [salish99_ss2_r3_088] (puzzle: Same State 2) | – | – | – | 121 | 54.2 | 329 |
| GUACAUAUCAGAGGAUAUCACGUCGUUUAGACGUGAGAAGGCUGAUCACACAUGAAUAUUAAUACAUGAGGAUCACCCAUGUAC [SSNG1/13-A3] (Eterna round: R96, puzzle: Same State NG 1) | 23.8 | 31.2 | 32.7 | – | – | – |
| UGGAGAAAUCAAGGAUAUGCUACCGUUUCGGUAGCAGAAGGUGAUCACAUGAGGAUCACCCAUGUAUGCAUGCGUGAGCGUGCU [JL SSNG1 3.54] (Eterna round: R96, puzzle: Same State NG 1) | – | 12.6 | – | – | – | – |
| UGAAUAGUCACAGGAUAUCAUGCGAAAAUUGCGUGAGAAGGGUGGAUGUUGUGCUCAAAGUUCUACAUGAGGAUCACCCAUGUU [SameState NG1 #43] (Eterna round: R96, puzzle: Same State NG 1) | 61.2 | 64 | 63.3 | – | – | – |
| GAGUGGCAGUUAGGAUAUGUAGUGAUAAUGAUAACAGAAGGAACAGACAUGAGGAUCACCCAUGUAGGACUAAUCCAGAGAGAG [Parity 35 - Jieux - Same State NG 1] (Eterna round: R96, puzzle: Same State NG 1) | 26.2 | 25.7 | 34.2 | – | – | – |
| UUUGGGUGGCUGGAGGAUAUUCUAGUGGUUACAUGAGGAUCACCCAUGUGUCGCGCGGUACGCGAGGAGAAGGCUGGCGGCCGUU (puzzle: Same State 2) | – | – | – | – | 83.5 | – |
| AUAAAACAUGAGGAUCACCCAUGUGGCGCUGACACAGGAUAUCAUGCGGAACUGGACGUAUGAGAAGGGUGAUGCG [Diateedza] (puzzle: Same State 1) | – | – | – | 53 | 216 | 419 |
| AUUGCUUACGCAGGAUAUGAUGCGAAAAUUGCGUCAGAAGGGUGAAGUGACUCAUUGCAACAGGACAUGAGGAUCACCCAUGUC [SameState NG1 #90] (Eterna round: R96, puzzle: Same State NG 1) | 184 | 305 | 708 | – | – | – |
| UUAAUUUGUUGAGGAUAUUAUGUCAAAAGAGAAGACAUGAGGAUCACCCAUGUGAGAAAAGGUUUUAAGAAGGCAACAUUCAUA [JR_SSNG2_Sub089] (Eterna round: R96, puzzle: Same State NG 2) | 39.5 | 77.7 | 115 | – | – | – |
| CCAACAUACAAUUUAAGAUCACAUGAGGAUCACCCAUGUAUGCAGGAUAUCAGCUCGAUUAGAGCUGAGAAGGGCAAUUUAAUU [SSNG3/1-A2] (Eterna round: R96, puzzle: Same State NG 3) | 89.6 | 151 | 216 | – | – | – |
| GCGAGCGUACUUGCAGACAUGAGGAUCACCCAUGUAACUGGGUAGGAUAUGGUACCGUUUCGGUACCAGAAGGACUUAUGAAAG [JL SSNG3 1.50] (Eterna round: R96, puzzle: Same State NG 3) | 67 | 35 | 54.4 | – | – | – |
